In article PMC10018365, “Cryo-EM structure of the fully assembled Elongator complex” (Nucleic Acids Research, 2023):

B1: Homo sapiens Elp456 subcomplex with Elp4 Δ133–175 (complex)
chain 1: MAAVATCGSVAASTGSAVATASKSNVTSFQRRGPRASVTNDSGPRLVSIAGTRPSVRNGQLLVSTGLPALDQLLGGGLAVGTVLLIEEDKYNIYSPLLFKYFLAEGIVNGHTLLVASAKEDPANILQELPAPSSSRFGHYYDASKRMPQELIEASNWHGFFLPEKISSTLKVEPCSLTPGYTKLLQFIQNIIYEEGFDGSNPQKKQRNILRIGIQNLGSPLWGDDICCAENGGNSHSLTKFLYVLRGLLRTSLSACIITMPTHLIQNKAIIARVTTLSDVVVGLESFIGSERETNPLYKDYHGLIHIRQIPRLNNLICDESDVKDLAFKLKRKLFTIERLHLPPDLSDTVSRSSKMDLAESAKRLGPGCGMMAGGKKHLDF
chain 2: MLDSLLALGGLVLLRDSVEWEGRSLLKALVKKSALCGEQVHILGCEVSEEEFREGFDSDINNRLVYHDFFRDPLNWSKTEEAFPGGPLGALRAMCKRTDPVPVTIALDSLSWLLLRLPCTTLCQVLHAVSHQDSCPGDSSSVGKVSVLGLLHEELHGPGPVGALSSLAQTEVTLGGTMGQASAHILCRRPRQRPTDQTQWFSILPDFSLDLQEGPSVESQPYSDPHIPPVDPTTHLTFNLHLSKKEREARDSLILPFQFSSEKQQALLRPRPGQATSHIFYEPDAYDDLDQEDPDDDLDI
chain 3: MFVELNNLLNTTPDRAEQGKLTLLCDAKTDGSFLVHHFLSFYLKANCKVCFVALIQSFSHYSIVGQKLGVSLTMARERGQLVFLEGLKSAVDVVFQAQKEPHPLQFLREANAGNLKPLFEFVREALKPVDSGEARWTYPVLLVDDLSVLLSLGMGAVAVLDFIHYCRATVCWELKGNMVVLVHDSGDAEDEENDILLNGLSHQSHLILRAEGLATGFCRDVHGQLRILWRRPSQPAVHRDQSFTYQYKIQDKSVSFFAKGMSPAVL
notes: Elp5, human, ORF; Elp6, human, ORF; source: Hi-5 insect cells (baculovirus, biGBac), purified (IgG Sepharose with TEV elution, Superose 6); not shown: FLAG, C-terminal, kept; Protein A, C-terminal, cleaved; copies: 2 + 2 + 2
B2: Saccharomyces cerevisiae Elp1 (natural protein, UniProt Q06706 1-1349, looked up)
chain: MVEHDKSGSKRQELRSNMRNLITLNKGKFKPTASTAEGDEDDLSFTLLDSVFDTLSDSITCVLGSTDIGAIEVQQFMKDGSRNVLASFNIQTFDDKLLSFVHFADINQLVFVFEQGDIITATYDPVSLDPAETLIEIMGTIDNGIAAAQWSYDEETLAMVTKDRNVVVLSKLFEPISEYHLEVDDLKISKHVTVGWGKKETQFRGKGARAMEREALASLKASGLVGNQLRDPTMPYMVDTGDVTALDSHEITISWRGDCDYFAVSSVEEVPDEDDETKSIKRRAFRVFSREGQLDSASEPVTGMEHQLSWKPQGSLIASIQRKTDLGEEDSVDVIFFERNGLRHGEFDTRLPLDEKVESVCWNSNSEALAVVLANRIQLWTSKNYHWYLKQELYASDISYVKWHPEKDFTLMFSDAGFINIVDFAYKMAQGPTLEPFDNGTSLVVDGRTVNITPLALANVPPPMYYRDFETPGNVLDVACSFSNEIYAAINKDVLIFAAVPSIEEMKKGKHPSIVCEFPKSEFTSEVDSLRQVAFINDSIVGVLLDTDNLSRIALLDIQDITQPTLITIVEVYDKIVLLRSDFDYNHLVYETRDGTVCQLDAEGQLMEITKFPQLVRDFRVKRVHNTSAEDDDNWSAESSELVAFGITNNGKLFANQVLLASAVTSLEITDSFLLFTTAQHNLQFVHLNSTDFKPLPLVEEGVEDERVRAIERGSILVSVIPSKSSVVLQATRGNLETIYPRIMVLAEVRKNIMAKRYKEAFIVCRTHRINLDILHDYAPELFIENLEVFINQIGRVDYLNLFISCLSEDDVTKTKYKETLYSGISKSFGMEPAPLTEMQIYMKKKMFDPKTSKVNKICDAVLNVLLSNPEYKKKYLQTIITAYASQNPQNLSAALKLISELENSEEKDSCVTYLCFLQDVNVVYKSALSLYDVSLALLVAQKSQMDPREYLPFLQELQDNEPLRRKFLIDDYLGNYEKALEHLSEIDKDGNVSEEVIDYVESHDLYKHGLALYRYDSEKQNVIYNIYAKHLSSNQMYTDAAVAYEMLGKLKEAMGAYQSAKRWREAMSIAVQKFPEEVESVAEELISSLTFEHRYVDAADIQLEYLDNVKEAVALYCKAYRYDIASLVAIKAKKDELLEEVVDPGLGEGFGIIAELLADCKGQINSQLRRLRELRAKKEENPYAFYGQETEQADDVSVAPSETSTQESFFTRYTGKTGGTAKTGASRRTAKNKRREERKRARGKKGTIYEEEYLVQSVGRLIERLNQTKPDAVRVVEGLCRRNMREQAHQIQKNFVEVLDLLKANVKEIYSISEKDRERVNENGEVYYIPEIPVPEIHDFPKSHIVDF
notes: Elp1, S. cerevisiae, full-length ORF; also called ScElp1; source: S. cerevisiae DS1-2b, overexpressed, purified within ScElongator

Legend:
[1] = target: T1, Homo sapiens Elp123 subcomplex, wild type (Homo sapiens, UniProt O95163 1-1332; Q6IA86 1-826; Q9H9T3 1-547); assay: pull-down; 10 μg bait, 20 μg prey; Elp123 on StrepTactin Sepharose by Twin-Strep-tagged Elp3, or Elp456 on anti-DYKDDDDK resin by FLAG-tagged Elp6; 30-60 min at 4°C; washes in 20 mM HEPES pH 7.5, 100 mM NaCl, 1 mM DTT, 0.05% Tween 20; SDS-PAGE with Coomassie or silver stain; also with ATP and bulk tRNA; details: both partners purified
T1 construct: Elp1, human, ORF; Elp2, human, ORF; Elp3, human, ORF; also called human Elp123; source: Sf9-3 insect cells (baculovirus, biGBac), purified (StrepTrap, heparin, Superose 6); not shown: Twin-Strep-tag, C-terminal, kept; copies: 2 + 2 + 2

[2] = target: the molecule itself; assay: cryo-EM structure; ScElongator purified from overexpressing yeast, native sample (4.35 Å) and BS3-stabilised sample (6.6 Å; two-lobed map 17.2 Å); sample buffer 20 mM HEPES pH 7.5, 100 mM NaCl, 3 mM DTT

T1 sequence (O95163 whole entry, chain 1 of 3): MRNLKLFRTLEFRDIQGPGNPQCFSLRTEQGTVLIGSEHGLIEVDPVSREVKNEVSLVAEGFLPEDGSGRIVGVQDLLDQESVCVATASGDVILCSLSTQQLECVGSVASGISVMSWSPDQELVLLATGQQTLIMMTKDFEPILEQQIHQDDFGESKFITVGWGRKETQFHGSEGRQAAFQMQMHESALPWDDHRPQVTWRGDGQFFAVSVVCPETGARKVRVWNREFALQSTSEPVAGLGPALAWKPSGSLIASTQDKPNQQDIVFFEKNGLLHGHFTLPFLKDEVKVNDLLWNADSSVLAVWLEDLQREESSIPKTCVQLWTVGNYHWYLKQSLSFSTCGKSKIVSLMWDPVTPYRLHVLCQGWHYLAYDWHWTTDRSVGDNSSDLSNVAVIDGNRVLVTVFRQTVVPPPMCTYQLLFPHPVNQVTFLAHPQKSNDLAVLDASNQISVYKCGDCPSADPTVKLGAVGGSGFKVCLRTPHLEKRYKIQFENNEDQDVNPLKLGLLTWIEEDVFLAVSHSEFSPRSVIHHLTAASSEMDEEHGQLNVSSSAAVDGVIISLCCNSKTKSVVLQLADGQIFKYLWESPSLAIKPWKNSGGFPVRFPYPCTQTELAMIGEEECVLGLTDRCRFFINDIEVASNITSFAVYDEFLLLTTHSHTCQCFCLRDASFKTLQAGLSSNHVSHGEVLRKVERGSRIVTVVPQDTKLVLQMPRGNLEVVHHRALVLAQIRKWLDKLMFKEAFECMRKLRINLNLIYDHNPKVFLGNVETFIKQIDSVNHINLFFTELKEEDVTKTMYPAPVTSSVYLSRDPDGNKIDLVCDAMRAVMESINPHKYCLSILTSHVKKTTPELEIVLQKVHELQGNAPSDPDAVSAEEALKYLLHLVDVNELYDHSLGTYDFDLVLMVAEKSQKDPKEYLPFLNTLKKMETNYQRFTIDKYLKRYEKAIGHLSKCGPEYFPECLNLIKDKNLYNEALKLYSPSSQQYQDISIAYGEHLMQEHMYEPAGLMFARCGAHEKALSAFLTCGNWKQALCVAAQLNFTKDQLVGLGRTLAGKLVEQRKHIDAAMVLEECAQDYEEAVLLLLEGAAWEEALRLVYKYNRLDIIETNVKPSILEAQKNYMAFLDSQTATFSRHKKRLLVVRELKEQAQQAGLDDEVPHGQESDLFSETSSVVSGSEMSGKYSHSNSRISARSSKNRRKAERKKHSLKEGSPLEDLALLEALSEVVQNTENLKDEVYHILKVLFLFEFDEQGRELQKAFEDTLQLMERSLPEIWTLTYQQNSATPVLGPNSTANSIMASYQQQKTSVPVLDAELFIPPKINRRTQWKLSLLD
T1 sequence (Q6IA86 whole entry, chain 2 of 3): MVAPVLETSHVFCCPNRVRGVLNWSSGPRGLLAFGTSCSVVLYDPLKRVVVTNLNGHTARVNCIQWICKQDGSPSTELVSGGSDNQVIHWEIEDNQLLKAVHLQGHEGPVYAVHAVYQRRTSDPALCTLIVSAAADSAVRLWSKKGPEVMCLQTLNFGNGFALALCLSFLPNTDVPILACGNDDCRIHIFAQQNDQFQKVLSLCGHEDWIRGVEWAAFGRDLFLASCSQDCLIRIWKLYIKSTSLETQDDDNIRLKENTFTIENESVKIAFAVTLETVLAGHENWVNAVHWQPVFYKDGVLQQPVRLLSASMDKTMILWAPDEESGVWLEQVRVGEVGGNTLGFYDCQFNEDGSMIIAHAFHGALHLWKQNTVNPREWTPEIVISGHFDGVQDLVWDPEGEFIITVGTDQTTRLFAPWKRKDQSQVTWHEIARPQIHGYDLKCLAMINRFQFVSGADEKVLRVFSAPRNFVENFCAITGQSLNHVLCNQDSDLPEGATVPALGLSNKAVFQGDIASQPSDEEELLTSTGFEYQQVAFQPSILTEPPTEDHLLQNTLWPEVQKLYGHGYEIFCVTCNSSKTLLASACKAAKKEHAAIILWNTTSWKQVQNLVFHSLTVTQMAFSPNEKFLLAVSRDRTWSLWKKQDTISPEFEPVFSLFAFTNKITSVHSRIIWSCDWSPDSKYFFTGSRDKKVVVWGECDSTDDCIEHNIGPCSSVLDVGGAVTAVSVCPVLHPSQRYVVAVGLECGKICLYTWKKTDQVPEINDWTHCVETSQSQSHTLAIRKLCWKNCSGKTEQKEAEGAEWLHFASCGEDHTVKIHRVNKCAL
T1 sequence (Q9H9T3 whole entry, chain 3 of 3): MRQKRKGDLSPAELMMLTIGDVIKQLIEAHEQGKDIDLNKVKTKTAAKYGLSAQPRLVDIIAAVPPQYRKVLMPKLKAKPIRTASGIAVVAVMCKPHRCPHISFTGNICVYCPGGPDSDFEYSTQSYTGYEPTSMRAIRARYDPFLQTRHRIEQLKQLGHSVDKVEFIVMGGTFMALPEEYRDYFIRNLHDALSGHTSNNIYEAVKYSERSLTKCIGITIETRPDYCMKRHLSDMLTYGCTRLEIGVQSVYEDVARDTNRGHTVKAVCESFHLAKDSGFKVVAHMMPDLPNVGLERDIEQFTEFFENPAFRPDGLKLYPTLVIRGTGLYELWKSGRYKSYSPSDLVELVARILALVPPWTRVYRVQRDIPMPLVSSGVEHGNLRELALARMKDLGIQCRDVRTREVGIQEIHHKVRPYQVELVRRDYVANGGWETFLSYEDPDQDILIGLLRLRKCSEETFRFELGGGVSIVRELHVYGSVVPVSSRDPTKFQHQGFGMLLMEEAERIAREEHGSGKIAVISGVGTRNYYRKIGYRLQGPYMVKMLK

Row | Binder | binding result [1] | binding result [2]
1 | B1 | binds | –
2 | B2 | – | binds
